Laboratory results from patent publication US20200181245A1 (University of California, published 2020).

Assays:
[1] = target: T1, His and avidin-tagged 3RTau (352), recombinant full length 3R Tau protein (UniProt P10636-2 2-352, limits assumed); test: ELISA and immunoblot
T1 construct: mature; Used for phage panning, ELISA (immobilized) and immunoblot; The His and avidin tags are not described further; also called 3RT protein; 3-repeat Tau

[2] = target: T2, tau352 (human tau isoform 352, 15N-labelled, His tag removed by TEV cleavage) (human, UniProt P10636-2 2-352); test: 2D 1H-15N HSQC NMR, about 1:1 molar ratio
T2 construct: mature; Uniformly 15N-labelled for NMR
Description: The interaction between scFv and tau352 was further studied by NMR spectroscopy. For this purpose, tau352 and 3RT antibody were recombinantly expressed in E. coli and HEK293 cells, respectively. 2D ¹H-¹⁵N heteronuclear single quantum coherence (HSQC) spectra were recorded on tau352 in absence and presence of 3RT antibody (FIG. 10A). The HSQC of tau352 has a narrow chemical shift dispersion indicative of an intrinsically disordered protein (FIG. 10A).
NMR experiments were recorded on a Bruker Avance 800 MHz spectrometer with 5% D₂O as lock solvent at 25° C. The 2D ¹H-¹⁵N HSQC experiments were recorded on a […] ¹⁵N labeled tau352 sample, for the interaction measurement an approximate 1:1 molar ratio between tau352 and scFv was used. For the 2D ¹⁵N HSQC, 512 data points were recorded in the indirect dimension with 128 scans per point for free tau352 and scFv-bound tau352.

T1 sequence (P10636 other isoform, or with tags, fused parts or gaps limits assumed): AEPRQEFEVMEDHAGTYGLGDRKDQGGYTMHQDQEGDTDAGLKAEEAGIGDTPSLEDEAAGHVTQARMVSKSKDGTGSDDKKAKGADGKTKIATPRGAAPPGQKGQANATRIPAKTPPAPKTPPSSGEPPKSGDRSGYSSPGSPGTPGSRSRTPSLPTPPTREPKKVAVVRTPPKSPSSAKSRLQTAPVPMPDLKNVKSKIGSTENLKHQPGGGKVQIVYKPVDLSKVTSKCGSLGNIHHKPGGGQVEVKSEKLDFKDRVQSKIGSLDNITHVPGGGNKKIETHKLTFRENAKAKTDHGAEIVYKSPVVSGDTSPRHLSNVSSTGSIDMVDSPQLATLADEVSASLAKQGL
T2 sequence (P10636 other isoform, or with tags, fused parts or gaps): as the sequence (P10636 other isoform, or with tags, fused parts or gaps limits assumed) above

B1: 3RT single chain antibody (Clone 5F10) (scFv)
scFv: MEQVNLRESGAEVKKPGASVKVSCKVSGYTFTGYYMHWVRQAPGQGLEWMGWINSNSGATKYAQKFQGRVTMTRDTSITTAYMELSSLRSDDTAVYYCARGARDGYGFDYWGQGTLVTVLAGGGGSGGGGSGGGGSGAPSYVLTQPPSASGTPGQRVTISCSGGSSNIGSNAVSWYQQLPGTAPKLLIFTNDQRPSGVPDRFSGSKSGTSAPLAISGLQSEDESDYYCATWDDSLNGWVFGGGTKVTVRS
notes: Human scFv from a phage display library; It was expressed from mammalian scFV cassettes; also called 3RT scFV; 3RTau scFV
**Q.** Does B1 bind [1]?
**A.** binds

**Q.** Does B1 bind [2]?
**A.** binds
